Source: the domain aggregation screens of Martell et al. (2025)

Test: soluble fraction after stress (log2 fold change); higher = more stays soluble; pooled small domains, quantitative proteomics
Details: stress: 50 degC
How it was run: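 Each library was heated to 50°C as a stress step. The libraries, made up of small protein domains, were pooled and analysed at high throughput by quantitative proteomics. The reported value is the base-two logarithm of the fold change in each protein's soluble amount after stress, taken as a measure of aggregation propensity. The higher the value, the more protein stays in solution.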

Sequence | soluble fraction (log2)
HMVEAIDQALIEKQIQAVLQENSAAVKKYQAGKTEVLAFLIGQSMRKIAKKVDANLVKNILLEQLKNK | 0.0542
HMRIAQYRQIENDLLEQINLGYYKKGDLIPTELELSATYHVSRVTVRKATDNLVAKGILQRVAGVGTFVSR | -1.87
HMGLLLSQLDKDYQRYIDLADSTFRDNQLAVSRGWYNRALGVKAAEKYPKDQIAEIEKKIAERM | -0.181
HMVEIGENIKKLRKAKRMTQKEVANQLNVTPQTISKWERNISYPDLDMLVKLSQLFHISTDALL | -0.0765
HMKNLADNIVALRKKHGLSQEQFAEKIDVTRQAVSNWERRIATPDVETIDLIAKLFDTDLTALVNG | -0.0311
HMSDPSRKADFIAALSSLGGSAGNGKLREQLGWDEPTYDAVKQTLLDEGAITNGRGRGGSVALAG | ≥ 0.62
HMETGFADTLRKFRKEADMTQEKLAEALGVTTGAVYKWENGRSTPEVRLLVEMADLFGTSVDALLDYKVR | -0.622
HMDPSWVPVFNNLRDAILSHQLLPGTRLAEDELSNIYGLGRTVIRSALGALTHEGLLTHIPNRGVHVAKP | -0.819
HMTDTIALRSVIAESGLKYKALAEIMGLSPYTLQMKIDNESEFKASEIDALANALGMDMQQRDSIFF | -0.701
HMPKDMAKRASILTAASKLFVQHGYGGVSMDQIAAEAGVSKLTVYSHYGDKDSLFAAAVQAH | -0.328
HMKKILITGNSGYIGSHLSKMLENDYEVHGLDIRQPQHPVAKFYEQDINRPINIEEEYDAVIHLAALV | -0.196
HMNLLSPREKQSLTLYASGLTLREVASELKLSPNSVGKFISRGKFKLNKSGAIVNSKTSIYLELKKRNLI | -0.111
HMSTVIENVFKNFEVYEIKKGDTFYNIEKRFGVNRQELLVLNPELKEGLKLGMVLKIKEIIP | -1.07
HMDNVQLRNFAIKATEASIIYLDQEQRNFFWYNNNKKLMTVPFDENPYSAFAAYLKTDEGSEVYKAIEKKF | -1.68
HMNDQLIYSDFIRQVQDGQITEVTISGLNIAGTRSDGSVFNTLRPYIEDPKLIDDLLSHNVRIQGAE | -0.2
HMALDLNEDEKLLVELIEKAGGTAGLGELKEASGLSGKKWDKTTKNLSKEGLIKVEKNESGLWVHLT | 0.153
HMWTIDPLDWKTENADQIVEKVMSEAKENAIILLHDRYEASVEAALRIVDLLKEQGYTFVTADKLV | -0.257
HMQEHAHLWRLMEDNRSFKADYIAFENGIVLLQNLSSGKISQYPITDFSIEDQLLILKRHELTAHINAN | -3.09
HMNSEELFLRRIAQELIDQHGKDLHRIIVVLPSNRSKVFLKKFLFEILGSAFLTPQLMLLPQFVKSIV | -0.282
HMAKSETAKIKATPYGWLRVRDTPSLNGAEIARVNSGDEYKVLEKETGWIKIKVSDTVEGWVSDAYIELS | -0.0312
HMAPNKLQQQEVWTKALPLLQQMIMTIRQIDAAGGDSSPERELLEETAARFDETLDVERFLP | -0.308
HMVSGSPTVDILMQRGLEYQQQENLEAARDAFDRAINLKPDYAEAWNRRAVLFFNEGKYDEAIADLETAIT | 0.077
HMSGIGTTIKMLRENKNISQEELGNVLGVSDKTISSWEINRTEPKMGIVQLLADYFGVSTDYLIKG | -0.146
HMAITYETKVISGVNLRSAPSTSASVYQLIPKGENIHVVQKVNDYWLKVQTKDGKTGYISASSKYTNYIG | -0.773
HMEALPELTDRQRQVYEFIEARIAEWGYPPTIREIGQHLGIKSTNGVADHLKALKRKGYLQQ | -0.0721
HMGAYITYEVKPGDTLWDIANKFPGVSADNIKTWNKVDELIKAGERLKINTQTITDYSPDKYPS | -0.221
HMASAKTVAQSGTYKFAKTTAIKSSASDAASTVGTYYKGNTVNYNAKVTTNGQTWLRYTSYSGAQYYVKVS | -3.18
HMPYSKIALQISHLLKSHGVPLSNKQIYEKLINDFQLSINYSNLTNNILPRMNSDSSINVEKVTRGYWQY | -0.634

Sequence | soluble fraction (log2)
HMHETMGQIIKRLRKERGLTQESLAERLGVTFQAVSKWETDAGMPDVSQIVPLANAFGVRTDVLFGLEGRD | -0.111
HMARAVSPLEAIPGVGPRRRQQLLKQLGGMQEVARAGVEDLSRVPGISRALAQQIYDAFHGD | -0.149
HMVSGLEILKIQVQDHPSDWRWALLLARTHYENGNREAAVRTLRPLQRLHPDRLEVMTLWALLA | -0.00253
HMKQYSFEISKADFKKISENFNFKIINEINDSLIISLNDKNINLDELLIFFVERKIKVRSIENI | -0.986
HMQKTQVVEVAGKSYQLTKMDARTGSYVAFKVAGVLAPSGGKTAEMAAALMGMPRKDFDELQSLLLRTV | 0.141
HMRISMRDQVYEIIKNRILSREYSLGEPINIVHLSKELGISNTPIREALSQLETERLITINSNQKYHVT | -0.154
HMQKDAYVPDIISKLKSSRMIVVEGTIYPLLTRLKNTGLLSYRWEESLQGPPRKYYSITEQG | 0.112
HMGAAFITSSKDNAINIRQSANTDSKVIETVTNGQILESNEKSGEWHKVTYYDNDIKKSFTGYVHEGQLK | 0.125
HMKQQNFADLAGRFVFNADNEVVFNFGKHKNVPVATVLKNEPGYYGWMMGGDFPLFTKKILKQIKEA | -0.847
HMIGHIGSAVMLNAKLRPRLPLLHVLALTQSLGERLSAAEAQPEVYRWSDPGQSRVIAEFEGGRLTRWRLE | -2.09
HMGAITGLQSRVAFLKGQGTITDAEAKTAMAFLPDPTDSKEVKIAKIGQAREYIMSLIENRA | -0.106
HMFEATGKITGTEVSFRRKPTTDSERILFFDINTEFRVIGINNGWYKGVYQGKTGYVRSDFVEIVGG | -0.162
HMKNAYDLKMLVKDNDGNIERNMKYYFFLANGSKVEGITDDNGYTKTITTIQPEKADLHLINDELI | -1.1
HMHPTEKNLTSLLADGSFYMNQNKLETAYDTFTKTIELDPSWAEAWNKRATVLYLMGKYELSQADIDQV | -0.0645
HMKSARQIAILEIIAEKSIETQEDLADALRLRGFQVTQATVSRDIKELRLVKALAPDGTYRYATAEK | -0.0157
HMSVDIWTGAQTGNIEAVKQHLADGVDVNSKSDIGRTALDVAIAFKQPLITDLLRKHGGKTRDELKAAE | 0.545
HMNEGETLYRLRAGDGRARLDKFLAAALPDISRTRFKGLIESGHVRVGGETITEPAYRVKSEAEVELTVPE | 0.0139
HMTYAQQIGARIAFLRRLKGLTLAELAERVNKHKSTISKYESGQIIIDIESLKEVADALGVDVAQIVE | -0.0214
HMTSAHEKAFDLFDGGKLSEKALLIAVGAERSGFELAGDLRLRTLTAFEDGRLSEDAMIKLL | -0.385
HMVDISLSDRELEVLRLLAMGLSNADISRRLYLSEGTIRNYMSGIFSKLNVSDRTQAVVIALREGLVNL | -0.48
HMLPVQGEEVAPGLYKFDFPFLADKRVWEKTINAFKAEHPELKVNYIYTGPDELNSKKKTHVLVYVFTES | -0.0974
HMQRSVEDVFVQLRNGMDTYDMTQIEDALRILHGMELSTAQRDLLDKVQEAYNDLEYETGAALLAGFERIK | 0.0317
HMGQKNEDESLAKFYVHKKGNQYGPYSLIQIREYLKNNSFSLDDLASWDGQSWKKISQIPNLN | -0.075
HMSSSYMVRITTSVLNVRKGPGTNYGITTKVKKGEVYTIVAEEKNGNTTWGKLKSGTGYISLGYTER | -1.29
HMPLLELPDDFYPAWKPKTIYVQGQRIMLDGVAFEAKWWTQGDNPASGQADPGSSPWRTLTQEEIAKLLE | -0.901
HMDEQKNREIALIENIQREDLNPYEKALGIRNLMDKYGLTQEEVSKRIGKSRSAVSNTVRILNLAPDVL | 0.0391
HMDRSRAEIDLGHVETAIRTLAEGGMVQEYAIGGRSLKRYKMGELLQLKAELENEINMERRKEKMRQ | 0.197
